Test results: patent US20230383257A1, “PRODUCTION OF MEGAKARYOCYTES AND PLATELETS IN A CO-CULTURE SYSTEM” (BOARD OF REGENTS, THE UNIVERSITY OF TEXAS SYSTEM, priority 2020, published 2023)

B1: α1,3-fucosyltransferase (protein, UniProt P51993 1-359, looked up)
4-galactosyl-N-acetylglucosami …: MDPLGPAKPQWSWRCCLTTLLFQLLMAVCFFSYLRVSQDDPTVYPNGSRFPDSTGTPAHSIPLILLWTWPFNKPIALPRCSEMVPGTADCNITADRKVYPQADAVIVHHREVMYNPSAQLPRSPRRQGQRWIWFSMESPSHCWQLKAMDGYFNLTMSYRSDSDIFTPYGWLEPWSGQPAHPPLNLSAKTELVAWAVSNWGPNSARVRYYQSLQAHLKVDVYGRSHKPLPQGTMMETLSRYKFYLAFENSLHPDYITEKLWRNALEAWAVPVVLGPSRSNYERFLPPDAFIHVDDFQSPKDLARYLQELDKDHARYLSYFRWRETLRPRSFSWALAFCKACWKLQEESRYQTRGIAAWFT
notes: fucosyl-transferase enzyme used with GDP-fucose for ex vivo fucosylation of cells

Tests used:
CB megakaryocytes [1] = assay: Platelet secretion from megakaryocytes cultured in vitro with or without ROCK inhibitor; assay type: cell-based, human; conditions: 48 hrs culture, vs without inhibitor; dose-dependent
Text: (§1) FIGS. 4A-4E. Rock inhibitor treatment enhance platelets secretion and TRAP induced activation. (FIG. 4A) Schematic representation of the strategy for the in-vitro megakaryocytes culture with or without rock inhibitor(Y27632) for 48 hrs. (FIG. 4B) Number of platelets after 48 hrs, number above bar indicates p-value. […] This indicates enhancement of functional profile of the CB platelets (FIGS. 4D-4E). Several different ROCK inhibitors can be used in this procedure including Y27632, KD025, GSK269962 and Azaindole 1([9-12].

CB megakaryocytes [2] = assay: Megakaryocyte polyploidy by propidium iodide staining after ROCK inhibitor treatment; assay type: cell-based, human; conditions: treatment of mature megakaryocytes over 5 days, vs untreated
Text: FIGS. 3A-3C. Rock inhibitor(Y27632) treatment increases megakaryocyte polyploidy. (FIG. 3A) Schematic representation of the strategy for the rock inhibitor treatment of mature megakaryocytes over 5 days. (FIG. 3B) Histogram plots showing propidium Iodide (PI) staining in fixed and permeabilized untreated or Y27632 treated megakaryocytes. (FIG. 3C) Percentage of polyploid (=>8N) megakaryocytes in untreated or Y27632 treated groups, number above bar indicates p-value.
The inventors characterized the influence of ROCK inhibitors on CB megakaryocyte ploidy changes, platelets secretions, and their functionality.
This indicates enhancement of functional profile of the CB platelets (FIGS. 4D-4E). Several different ROCK inhibitors can be used in this procedure including Y27632, KD025, GSK269962 and Azaindole 1([9-12].

CB platelets = assay: TRAP-induced platelet activation (CD62P expression); assay type: cell-based, human; conditions: after TRAP stimulation, vs without inhibitor
Text: as §1

[3] = system: megakaryocyte erythroid progenitors (MEPs); assay: Cell surface fucosylation by flow cytometry HECA-452 antibody staining; assay type: cell-based, human; conditions: FT-VI 0.025 μg/ml plus GDP-fucose, 37° C., 30 min, vs control
Text: (§2) FIGS. 7A-7G. FIG. 7A. […] (FIG. 7C) HECA-452 antibody mean fluorescence intensity (MFI) histogram expression in control and fucosylated megakaryocytes (CD41a+CD42b+CD61+ cells). (FIGS. 7D-7E) Schematic representation of CB megakaryocytes injection into NSG mice, BM homing analysis and the percentage of homed megakaryocytes in control and fucosylated megakaryocytes group. (FIGS. 7F-7G) CB megakaryocyte injection strategy into sublethally irradiated(3Gy) NSG mice and day 7 blood circulating CB derived platelets percentages measurement in the control and fucosylated groups.
(§3) To characterize the fucosylation levels at steady state, the inventors performed flow cytometry HECA-452 antibody staining (which recognizes sLex/cutaneous lymphocyte antigen (CLA), the fucosylated selectin ligand) to measure the levels of cell surface fucosylation in the freshly isolated CB derived hematopoietic stem cells(HSCs, lineage-CD34+CD38-CD90+CD45RA− cells), megakaryocytes lineage committed, megakaryocyte erythroid progenitors (MEPs, lineage-CD34+CD38+CD135−CD45RA−), and differentiated megakaryocytes(CD41a+CD42b+ cells). […] The NSG bone marrow homing experiments determine if the CB MK's surface fucosylation modification influences their homing into the irradiated mice marrow niche. Briefly, 5×10^6 fluorescein succinimidyl ester (CFSE) dye labeled, unmanipulated control or in-vitro fucosyltransferase-VI (FT-VI) induced fucosylated, expanded CB megakaryocytes were injected into sub-lethally (3Gy) irradiated NSG mice and bone marrow homing analysis at 20 h posttransplant was performed by flow cytometry. […] Similarly, another megakaryocytes tail vein transplantation (5×10^6/mice) experiment was performed, and initial percentage circulating platelets levels were measured from the control and fucosylated MK recipient groups. […]

[4] = system: CB derived hematopoietic stem cells (HSCs); assay: as above; assay type: cell-based, human; conditions: FT-VI 0.025 μg/ml plus GDP-fucose, 37° C., 30 min, vs control
Text: as §2, §3

[5] = system: megakaryocytes (CD41a+CD42b+ cells); assay: as above; assay type: cell-based, human; conditions: FT-VI 0.025 μg/ml plus GDP-fucose, 37° C., 30 min, vs control
Text: as §2, §3

recipient patients = conditions: ex vivo treatment of CB CD34+ progenitors with FT-VI plus GDP-fucose; cited from earlier work

Molecule | platelets secretion (number of platelets) (CB megakaryocytes [1]) | megakaryocyte polyploidy (polyploid =>8N megakaryocytes) (CB megakaryocytes [2]) | TRAP induced platelet activation (CD62P expression) (CB platelets) | fucosylation levels (HECA-452 MFI) in MEPs [3] | fucosylation levels (HECA-452 MFI) in HSCs [4] | fucosylation levels (HECA-452 MFI) in megakaryocytes [5] | neutropenia and thrombocytopenia duration in recipient patients (recipient patients)
C[C@@H](N)[C@H]1CC[C@H](C(=O)Nc2ccncc2)CC1 [Y27632] | enhance | increases | enhance |  |  |  | 
B1 |  |  |  | significantly increased | significantly increased | significantly increased | significantly reduce
